Results on 40 sequences are retold here after the nanobody polyreactivity screen of Harvey et al. (2022).

The data set can be described thus: yeast display, Sf9 membrane polyspecificity reagent, FACS + sequencing; frameworks hold sequencing errors. In a few lines: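 Using colony PCR, genes from sorted yeast display clones were amplified, then sequenced on MiSeq at 2 × 250 and filtered by CDR length. The clones had been stained with 10% biotinylated, detergent-solubilized Sf9 membrane reagent for 1 hour at 4 °C and sorted by FACS into low and high (top ~1%) gates on anti-HA and streptavidin fluorescence. Polyreactivity labels come from the gate of origin.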
Turning to “QVQIVESGGGLVQAGGSLRLSFAASGSILYINAMGWYRQAPGKERELVAAISWSGDSTNYADSVKGRFTISRDNAKNTVYLQMNSLKPEDTAVYYCNADCDVVGVAHDYWGQGTQVTVSS”, the “polyreactivity (PSR sort gate)” value is “low polyreactivity”.
The same measure for “QVQLVESGGCLVQAGGSLRLSCAASGSIFDSNPKGWYRQAPGKERELVAAITGSGTSTYYADSVKGRFTISRDNAKNTVYLQMNSLKPEDTALNYCAAAPEYLTDHDYWGQGTQVTVSS”: “low polyreactivity”.
With “QVQLVESGGGLVQAGGSLRLSCAASGRIFGAYAMGWSRQAPGKERELVAAITSRGGNTYYADSVKGRFTISRDNAKNTVYLQMNSVKPEDTAVYYCAARHDKRRQYYVGQSAFDYWGQGTQVTVSS”, the “polyreactivity (PSR sort gate)” value is on record as “low polyreactivity”.
The entry for “QVQLVESGGGLVQAGGSLRLSCAASGRIFDRYAMGWYRQAPGKERELVAAISDRGGSTYYADSVKGRFTISRDNAKNTVYLQMNSLKPEDTAVFYCAKGPSGVRTYREYDSWGQGTQVTVSS” is “low polyreactivity”; for “QVQLVESGGGLVQAGGSLRLSCAASGFIFYSNAMGWYRQAPGKERELVAAISRRGGSTYYADSVKGRFTISRDNAKNTVYLQMNSLKPEDTAVYYCAATFKSGMDYWGQGTQVTVSS” it is “high polyreactivity”; for “QDQLVESGGGLVQAGGILSLSCAASGSTFSYYAMGWYRQAPGTETELVAAISSRGGSTYYADSVKGRFTISRDNAKNPVYLQMNSLNPEDTAVDYCNADHKFRSSVSGDHDYWGQGTQVTVSS” it is “high polyreactivity”.
Take “QVQLVESGRGLVQAGGSLRLSCAASGRTFPFYAMGWYRQAPGKEREFVAAITASGDSTYYADSVKGRFTISRDNAKNTVYFQMHSLKPEDTAVYYCAADLPVWYVTRYDYWGQATQVTVSS”: the “polyreactivity (PSR sort gate)” value is listed as “low polyreactivity”.
The entry for “QVQLVESVGGLFQAGGSLRLSCDASGFTFTAYAMGWYIQAPGKERELVAAINWSGSRTYYADSVKGRFTISRDNAKNTVYLQMNSLKPEDTAVYYCNTATSKSSYRHYDYWGQGTQVTVSS” is “high polyreactivity”.
In the case of “QVQLVESGGGLVQAGGSLRLSCAASGSILAYNAMGWYRQAPGKERELVASITTSGGSTYYADSVKGRFTISRDNAKNTVYLQMNSLKPEDTAVYYCNAEYWLGRWLRYGYWGQGTQVTVSS”, the “polyreactivity (PSR sort gate)” value is “high polyreactivity”.
The same measure for “QVQLVESGGGLVQAGRSLRLSCAASGSTFYAYTMGWYRKAPGKERELVAGISRRGGTTYYADSVKGRFTISRDNAKNTVYLQMNSLKPEDTAVYHCATRSWELGDYWGQGTQVTVSS”: “low polyreactivity”.
Consider “QFQLVEAGGGLVQAGGSLRLSCAASGSIFTYAMGWYRQAPGKEREFVAAISRSGGRTYYADSVKGRFTMSRDNAKNTVYFQMNSLKPDDTAVYYCAPLLLKDYDYWGQGTQVTVSS”, for which the “polyreactivity (PSR sort gate)” value was “low polyreactivity”.
As to “QVQLVESGGGLVQAGGSLRLSCAASGRIFRSYAMGWYRQAPGKERELVAAISSGVITYYADSVKGRFTISRDNEKNTVYLQMNSLKPEDTAVYYCNARWRFLYDYWGQGTQVTVSS”, the “polyreactivity (PSR sort gate)” value is “high polyreactivity”.
The entry for “QVQLVESGGGLVQAGGSLRLSCAASGRTFVYYAMAWYRQAPGKERELVAAISRTGVNTYYADSVKGRFTISRDNAKNTVYLQMNSQKPEDTAVYYCNKVYRADRSSVPYEYWGQGTQVTVSS” is “high polyreactivity”; for “QVQLVESGGGLVQAGGSLRLSCAASGSTFKRNAMGWYRQAPGKERELVAAISWSGGSTYYADSVKGRFTISRDNAKNTVYLQMNSLKPEDTAVYYCNADHPFPQYEGGSWGQGTQVTVSS” it is “low polyreactivity”; for “QVQLVESGGGLVQAGGSLRLSCAASGSIFGAYTMGWYRQAPGKERELVAAISIGGSTNYADSVKGRFTISRDNAKNTVYLQMNSLKPEDTAVYYCAAYRQANRYGGEDYWGLGTQVTVSS” it is “high polyreactivity”.
The entry for “QVQLVESAGGLVQAGGSLRLSCDASGRIFTIYAMGWYSQAPGKERELVAAIRSSGDRTYYADSVKGRFTISRDNAKNTVYLQMNSQKPEDTAVYYCAARTRGGYYWGQGTQVTVSS” is “high polyreactivity”; for “QVQLVESGGGLFQAGGSLRLSCAASGIIFYVNDMGWYRQAPGKERELVADISGGTSTNYADSVKGRFTISRDNAKNTVYLQMNSLKPEDTAVYYCATAFIVQFPGSDYWGQGTQVTVSS” it is “low polyreactivity”; for “QVQLVESGGGLVQAGGSLRLSCAASGRIFYYNAMGWYRPAPGKERELVAAITGDGTTDYADSVKGRFTISRDNAKNTVYLQMNSLKPEDTAVYYCNAPFRYVPPEGSGPYDYWGQGTQVTVSS” it is “low polyreactivity”.
“QVQLVESGGGLVQAGGSLRLSCAASGFIFGYNAMDWYRQAPGKERELVAAITSGGSTNYADSVKGRFTISRDNAKNTVYLQMNSLKPEDTAVYYCNTVPGDFRSITDDDWGQGTQVTVSS”: the “polyreactivity (PSR sort gate)” value is given as “low polyreactivity”.
With “QVQLVESGGGLVQAGGSLRLSCAASGYTLRIYAMGWYRQAPGKEREMVAAISRSGGRTFYADSVKGRFTISRDNAKNTVYLQMNSLKPEDTAVYYCAADPRSYDTGRMDYWGQGTQVTVSS”, the “polyreactivity (PSR sort gate)” value is reported as “high polyreactivity”.
The same measure for “QVQLVESGGGLVQAGGSLRLSCAASGIIFGDYAMGWYRQAPGKERELVAGISITGDSTYYADSVKGRFTISRDNAKNTVYLQMNSLKPEDTAVSYCAAGWALIFDYWGQGTQVTVSS”: “low polyreactivity”.
The entry for “QVQLVESGGGLVQAAGSLRLSCDASGRIFAYYAMGWYRQAPGKERELVAAISRSGVSTYYADSVKGRFTISRDNAKNTVYLQMNSLKPEDTAVYYCAARWRSGFTSGDYWGQGTQVTVSS” is “low polyreactivity”; for “QVQLVDSGGGLVQAGGSLRLSCAAYGSIFKYYCMGWYRQAPGKERELVATISKRGGSTYYADSVKGRFTISRDNAKNSVYLQMNSLKPEDTAVYYCAKDSPALRPLTWQQLYDFWGQGTQVTVSS” it is “high polyreactivity”; for “QDQLVESGGGLVQAGGSLRLSCAASGSTLGYNAMGWYRQAPGKERELVAAIRGGDDDTYYADSVKGRFTISRDNAKNTVYLQMNSLKPEDTAVYYCATGDTSIPYSTPGGYDSWGQGTQVTVSS” it is “low polyreactivity”.
On to “QLQLEESGGGLVQAGGSLRLSCAASVRTLRRNAMGWYRQAPGKEKELVAAITGSGGSTYYADSVKGRFTISRDNAKNTVYLQMNSLKPEDTAVYYCAARGPSRRRDGSDYWGQGTQVTVSS”, for which the “polyreactivity (PSR sort gate)” value was “high polyreactivity”.
The entry for “QVQLVESGGGLVQAGGSLRLSCAGSGNIFVFYVMGWYRQAAGKERELVASISSTGNTYYADSVKGRFTISRDNAKNTVYLQMNSLKPEDTAVYYGAADSHQNVSGWLRWPRMDYWGQGTQVTVSS” is “low polyreactivity”; for “QVQLVESGGGLVQAGGSLRLSCAASGRTFSYYTLGWYRQAPGKERELVARISNRGTNTYYADSVKGRFTISRDNAKNTVYLQMNSLKPEDTAVYYCAAYTPPVYWLTRAIRGYYWGQGTQVTVSS” it is “low polyreactivity”.
Regarding “QVQLVESGGGLVQAGGSLRLSCAASGSTFGFNGMGWYRQAPGKERELVAAIRSSGGSTYYADSVKGRFTISRDNAKNTVYLQMNSLKPEDTAVYYCAADYYTYGFANWYLWYDYWGQGTQVTVSS”, the “polyreactivity (PSR sort gate)” value is “high polyreactivity”.
The entry for “QVQLVESGGGLVQAGGSLRLSCAASGFTFAVYAMGWYRQAPGKERELVAAINRGGGSTYYADSVKGRFTISRDNAKNTVYLQMNSLKPEDTAVYYCNKRYRVWFDYWGQGTQVTLSS” is “high polyreactivity”; for “QVQLVESGGGLVQAGGSLRLSCAASGSTFSYNDMGWYRQAPGKERELVAAISSGGSTKYADSVKGRFTISRDNAKNTVYLQMNSLKPEDTAVYYCNVDVKGRPTFWSPFGRFDYWGQGTQVTVSS” it is “high polyreactivity”; for “QVQLVESGGGLVQAGGSLRLSCAASGSTLRRYAMGWYRQAPGKERELVAAISGTGSRTYYADSVKGRFSISRDNATNTVYLHMISLKREDTAVYYCNASPYGLTENDYWGQGTQVTVSS” it is “high polyreactivity”.
The same measure for “QVQLVESGGGLVQAGGSLRLSCAASGSIFRRYAMGWYRQAPGKEREFVAAITRSGGGTYYADSVKGRFTISRDNAKNTVYLQMNSLKPEDTAVYYCAADAPNFGLYRDKDYDYWGQGTQVTVSS”: “high polyreactivity”; for “QVQLVQSGGGLVQAGGSLRLSCAASGSTFWMNAMGWYRQAPGKEREFVAAITVRGGSTYYADSVKGRFTISRDNAKNTVYLQMNSLKPEDTAVYYCNRPSSLAWPWTGSFSRYDYWGQGTQVTVSS”: “low polyreactivity”; for “QVQLVESGGGLVQAGGSHRLSSAASGSTFAKNAMGWYRQARGKESELVATISRGGSTNYADSVKGRFTISRDNAKNTVYLQMNSLKPEDTAVYYCNADRVRTAVYSYVYAYGIMNYSGQGTQVTVSS”: “low polyreactivity”.
For “QVQLVESGGGLVQAGGSLRLSCAASGGIFSVYAMGWYRQAPGKEREFVAAISKSGGRTYYADSVKGRFTISRDNAKNTVYLQMNSLKPEDTAVYYWNVVRRSPGDYSYYYWGQGTQVTVSS”, the “polyreactivity (PSR sort gate)” value is “low polyreactivity”.
Turning to “QVQLVESGGGLVQAGGSLRLSCAASGSIFVKYAMGWYRQAPGTERELVAAISWSGDSTYYADSVKGRITISRDNAKNTVYLQMNSLIPEDTAVYFCAAYSGYGGVSMYYWGQGTQVTVSS”, the “polyreactivity (PSR sort gate)” value was “low polyreactivity”.
For the sequence “QVQLVESGGGLVQAGGSLRLSCAASGIIIRGYAMGLYRQAPGKERELVAGITSGGRTYYADSVKGRFTISRDNAKNTVYLQMNSLKPEDTAVYYCNADAYGDDWKIYDYWGQVTQVTVSS”, the “polyreactivity (PSR sort gate)” value was “low polyreactivity”.
Regarding “QVQLVESGGGLVQAGGSLRLSCAASGYTFYYYAMGWYRQAPGKERELVAGISGRGGSTYYADSVKGRFTISRDNAKNTVYLQMNSLKPEDTAVYYCAATSPRAGTRRYEYWGQGTQVTVSS”, the “polyreactivity (PSR sort gate)” value was “high polyreactivity”.
The same measure for “QVQLVESGGGLVQAGGSLRLSCAASGSTFRANAMGWYRQAPGKERELVAAISWSGGRTYYADSVKGRFTISRDNAKNTVYLQMNSLKPEDTAVYYCAAVTTQYIYSVPYYYWGQGTQVTVSS”: “high polyreactivity”; for “QVQLVESGGGLVQAGGSLRLSCAASGGTFSGYVMGWYRQAPGKERELVAAISRRGTTTYYADSVKGRFTISRDNAKNTVYLQMISLKPEDTAVYYCAAVTRWKRTLSSFYYWGQGTQVTVSS”: “high polyreactivity”.
